PMC5180416 (Journal of the American Chemical Society, 2012)
Like-named read-outs stand apart in the source and are kept apart here. Square brackets hold non-standard residues; d marks the D form. ACPC = not defined here; Ac3c = NC1(C(=O)O)CC1

Tests used:
[1] = biological target: T1, WDR5 (WD (Trp-Asp) repeat domain 5) (UniProt P61964 1-334); test: fluorescence polarisation
[2] = biological target: T1, WDR5 (WD (Trp-Asp) repeat domain 5); test: fluorescence polarisation; remark: listed apart in the source

Row | Binder | Ki [1] [nM] | Ki [2] [nM]
1 | Ac-[Ac3c]-Arg-Val-NH2 [ACPC-RV] | 60 | –
2 | Ac-Val-Arg-[ACPC]-NH2 (reading uncertain) [VR-ACPC] | – | 600
